One block for each binder: values may come before it.
Columns and labels:
[1] = target: T1, 4H626-bA; assay: two-hybrid library CCNG1;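 also: natural log of median RNA to DNA barcode read ratio; higher means stronger binding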
T1 chain: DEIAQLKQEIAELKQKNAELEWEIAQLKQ

[2] = target: T2, 4H906-bA; assay: two-hybrid library CCNG1;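 also: natural log of median RNA to DNA barcode read ratio; higher means stronger binding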
T2 chain: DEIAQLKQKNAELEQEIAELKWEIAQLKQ

[3] = target: T3, 4H780-bH; assay: two-hybrid library CCNG1;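 also: natural log of median RNA to DNA barcode read ratio; higher means stronger binding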
T3 chain: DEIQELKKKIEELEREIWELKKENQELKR

[4] = target: T4, 4H754-bH; assay: two-hybrid library CCNG1;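 also: natural log of median RNA to DNA barcode read ratio; higher means stronger binding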
T4 chain: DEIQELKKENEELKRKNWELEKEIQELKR

[5] = target: T5, 4H797-bH; assay: two-hybrid library CCNG1;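 also: natural log of median RNA to DNA barcode read ratio; higher means stronger binding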
T5 chain: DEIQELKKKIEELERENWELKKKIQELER

[6] = target: T6, 4H855-bH; assay: two-hybrid library CCNG1;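 also: natural log of median RNA to DNA barcode read ratio; higher means stronger binding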
T6 chain: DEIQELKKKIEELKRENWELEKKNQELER

[7] = target: T7, 4H953-bH; assay: two-hybrid library CCNG1
T7 chain: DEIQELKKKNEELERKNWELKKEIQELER

[8] = target: T8, 4H968-bH; assay: two-hybrid library CCNG1
T8 chain: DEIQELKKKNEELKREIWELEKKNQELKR

[9] = target: T9, 4H683-bH; assay: two-hybrid library CCNG1
T9 chain: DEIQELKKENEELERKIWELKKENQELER

[10] = target: T10, 4H918-bH; assay: two-hybrid library CCNG1
T10 chain: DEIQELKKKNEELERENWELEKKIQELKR

[11] = target: T11, 4H575-bH; assay: two-hybrid library CCNG1
T11 chain: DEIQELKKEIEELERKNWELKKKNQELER

[12] = target: T12, 4H855-bN; assay: two-hybrid library CCNG1
T12 chain: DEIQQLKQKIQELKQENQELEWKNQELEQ

[13] = target: T13, 4H968-bN; assay: two-hybrid library CCNG1
T13 chain: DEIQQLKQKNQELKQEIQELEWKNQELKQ

[14] = target: T14, 4H683-bN; assay: two-hybrid library CCNG1
T14 chain: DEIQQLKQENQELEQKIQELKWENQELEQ

[15] = target: T15, 4H754-bN; assay: two-hybrid library CCNG1
T15 chain: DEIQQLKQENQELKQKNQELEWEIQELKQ

[16] = target: T16, 4H918-bN; assay: two-hybrid library CCNG1
T16 chain: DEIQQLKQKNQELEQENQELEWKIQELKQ

[17] = target: T17, 4H780-bN; assay: two-hybrid library CCNG1
T17 chain: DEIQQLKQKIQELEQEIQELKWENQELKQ

[18] = target: T18, 4H953-bN; assay: two-hybrid library CCNG1
T18 chain: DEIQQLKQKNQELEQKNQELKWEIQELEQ

[19] = target: T19, 4H797-bN; assay: two-hybrid library CCNG1
T19 chain: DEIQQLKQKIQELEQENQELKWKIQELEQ

[20] = target: T20, 4H626-bH; assay: two-hybrid library CCNG1
T20 chain: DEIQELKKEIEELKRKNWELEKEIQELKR

[21] = target: T21, 4H906-bH; assay: two-hybrid library CCNG1
T21 chain: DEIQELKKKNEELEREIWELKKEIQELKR

[22] = target: T22, 4H895-AA; assay: two-hybrid library CCmax; details: mean of both orientations
T22 chain: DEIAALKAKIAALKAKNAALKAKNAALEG

[23] = target: GCN2_T; assay: two-hybrid library CCmax
[24] = target: T23, 4H_BCR; assay: two-hybrid library CCmax; details: mean of both orientations
T23 chain: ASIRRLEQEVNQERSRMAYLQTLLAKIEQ

[25] = target: 4H_GCN4; assay: two-hybrid library CCmax
[26] = target: T24, 4H58-AA; assay: two-hybrid library CCmax
T24 chain: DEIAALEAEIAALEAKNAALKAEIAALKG

[27] = target: T25, 4H_APH; assay: two-hybrid library CCmax
T25 chain: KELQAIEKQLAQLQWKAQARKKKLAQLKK

Sequence of 4H_GCN4 (chain, as listed by the source): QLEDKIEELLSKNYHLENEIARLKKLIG

interaction score [1]: 0.86 | interaction score [2]: -1.23
B1: 4H626-bA (peptide)
chain: DEIAQLKQEIAELKQKNAELEWEIAQLKQ

interaction score [3]: -0.754 | interaction score [4]: -0.631 | interaction score [5]: -0.434 | interaction score [6]: 1.37 | interaction score [7]: -0.118 | interaction score [8]: -1.01 | interaction score [9]: -0.243 | interaction score [10]: -0.438 | interaction score [11]: -0.14
B2: 4H575-bH (peptide)
chain: DEIQELKKEIEELERKNWELKKKNQELER

interaction score [12]: -0.411 | interaction score [13]: 1.51 | interaction score [14]: -0.0866 | interaction score [15]: -1.46 | interaction score [16]: -0.318 | interaction score [17]: -0.606 | interaction score [18]: -0.218 | interaction score [19]: 0.0127
B3: 4H683-bN (peptide)
chain: DEIQQLKQENQELEQKIQELKWENQELEQ

interaction score [20]: 0.932 | interaction score [21]: -0.349
B4: 4H626-bH (peptide)
chain: DEIQELKKEIEELKRKNWELEKEIQELKR

interaction score [22]: -0.545 | interaction score [23]: -0.172 | interaction score [24]: -2.14 | interaction score [25]: 0.011 | interaction score [26]: 1.75 | interaction score [27]: -1.68
B5: 4H58-AA (peptide)
chain: DEIAALEAEIAALEAKNAALKAEIAALKG

Source: publication PMC10397247
